Assay results taken from CN113117073A.

How the values were obtained:
人PD-L1-His (human) = 人PD-L1-His (human) (UniProt Q9NZQ7); experiment: SPR; PD-L1-His captured by anti-His antibody on a CM5 chip, antibody as analyte 0-1000 nmol/L, 1:1 binding fit
[1] = target: PD-L1 (antigen of the indirect ELISA for titre; not specified); experiment: indirect ELISA, ascites antibody
Chain of PD-L1 (antigen of the indirect ELISA for titre; not specified) (Q9NZQ7 whole entry): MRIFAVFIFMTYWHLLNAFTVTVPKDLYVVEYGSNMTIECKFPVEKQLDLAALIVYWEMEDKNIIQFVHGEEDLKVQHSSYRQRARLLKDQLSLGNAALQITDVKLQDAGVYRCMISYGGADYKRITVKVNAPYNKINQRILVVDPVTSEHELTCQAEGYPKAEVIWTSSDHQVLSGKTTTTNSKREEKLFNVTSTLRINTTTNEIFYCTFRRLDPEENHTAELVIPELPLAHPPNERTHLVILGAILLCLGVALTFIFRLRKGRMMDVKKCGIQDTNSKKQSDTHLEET

B1: PD-L1单克隆抗体 1A7 (antibody, part only; not given: light chain variable domain, V domains shown, part only)
VH: EVKLVESGGGLVKPGGSLKLSCAASGFTFSQTTMAWVRQIPEKRLEWVASIEEGGSCCFPDSALSRFTISRDNARNICYLQMNSLRSDDTAMYYCARAREACAGYFARWGQGTTLTVSS
In the case of B1, the Kd (人PD-L1-His (human)) is reported as 4.19 nM and the 腹水效价 (ascites titre) (titre (1:x dilution)) [1] is reported as 2.56e+06.
